According to the supplement of paper PMC7877785:
± gives the uncertainty stated by the source.

Assay: self-splicing fitness, log relative to wild type (ln ratio); higher = more splicing; Tetrahymena group I intron in knt gene, E. coli kanamycin selection, DiMSum; sequences stand for … in CUCUCU…GGAGGGAAAAGUUAUCAGGCAUGCACCUGGUAGCUAGUCUUUAAACCAAUAGAUUGCAUCGGUUUAAAAGGCAAGACCGUCAAAUUGCGGGAAAGGGGUCAACAGCCGUUCAGUACCAAGUCUCAGGGGAAACUUUGAGAUGGCCUUGCAAAGGGUAUGGUAAUAAGCUGACGGACAUGGUCCUAACCACGCAGCCAAGUCCUAAGUCAACAGAUCUUCUGUUGAUAUGGAUGCAGUUCACAGACUAAAUGUCGGUCGGGGAAGAUGUAUUCUUCUCAUAAGAUAUAGUCGGACCUCUCCUUAAUGGGAGCUAGCGGAUGAAGUGAUGCAACACUGGAGCCGCUGGGAACUAAUUUGUAUGCGAAAGUAUAUUGAUUAGUUUUGGAGUACUCGUGGUCG
Procedure, shortened: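 Fitness was computed with DiMSum as the error-weighted combination of replicate fold changes, kanamycin versus none, each normalised to wild type. The library randomised all eight intron nucleotides of the P1ex region, with the intron placed in the knt kanamycin-resistance gene on pET-22b(+) in E. coli BL21(DE3). Six replicate transformations were grown overnight at 37°C or 30°C on LB agar with or without 25 μg/mL kanamycin, plus 100 μg/mL carbenicillin, 50 μM IPTG and 0.2% rhamnose. Pooled colonies were amplicon-sequenced on an Illumina HiSeq 2500.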

| Sequence | self-splicing fitness (ln) (30 °C) | self-splicing fitness (ln) (37 °C) |
| --- | --- | --- |
| CGAGAGCAAUAUUACGAGUC | -3.99 ± 0.4 | -3.75 ± 0.34 |
| CGAGAGCAAUAUUACGCACC | -1.83 ± 0.28 | -2 ± 0.34 |
| CGAGAGCAAUAUUACGCGAA | -2.39 ± 0.27 | -1.89 ± 0.37 |
| CGAGAGCAAUAUUACGCUCU | -3.65 ± 0.27 | -2.62 ± 0.3 |
| CGAGAGCAAUAUUACGGACC | -3.73 ± 0.44 | – |
| CGAGAGCAAUAUUACGGACU | -1.89 ± 0.29 | -2.14 ± 0.38 |
| CGAGAGCAAUAUUACGUAUC | -3.63 ± 0.25 | -1.87 ± 0.38 |
| CGAGAGCAAUAUUACGUCCA | – | -3.02 ± 0.43 |
| CGAGAGCAAUAUUACGUUAC | -4.23 ± 0.28 | -2.29 ± 0.24 |
| CGAUAGCAAUAUUACGAAAC | -1.44 ± 0.32 | – |
| CGAUAGCAAUAUUACGACAC | -3.23 ± 0.49 | – |
| CGAUAGCAAUAUUACGACAU | -3.167 ± 0.021 | -1.95 ± 0.035 |
| CGAUAGCAAUAUUACGACCG | -1.44 ± 0.21 | 0.156 ± 0.24 |
| CGAUAGCAAUAUUACGCAAG | -1.97 ± 0.13 | -0.614 ± 0.11 |
| CGAUAGCAAUAUUACGCACA | -0.708 ± 0.088 | -0.0385 ± 0.12 |
| CGAUAGCAAUAUUACGCCAG | -1.35 ± 0.1 | -0.84 ± 0.15 |
| CGAUAGCAAUAUUACGCCCU | -0.983 ± 0.2 | 0.695 ± 0.25 |
| CGAUAGCAAUAUUACGCUGG | -0.585 ± 0.19 | -1.43 ± 0.23 |
| CGAUAGCAAUAUUACGCUUA | -2.23 ± 0.12 | -1.19 ± 0.078 |
| CGAUAGCAAUAUUACGGAAU | -3.23 ± 0.16 | -2.01 ± 0.2 |
| CGAUAGCAAUAUUACGGACU | -1.28 ± 0.095 | -0.496 ± 0.11 |
| CGAUAGCAAUAUUACGGAUU | -2.89 ± 0.11 | -2.61 ± 0.2 |
| CGAUAGCAAUAUUACGGCGC | -1.21 ± 0.15 | -0.875 ± 0.26 |
| CGAUAGCAAUAUUACGGCUA | -3.24 ± 0.49 | -1.08 ± 0.17 |

| Sequence | self-splicing fitness (ln) (30 °C) | self-splicing fitness (ln) (37 °C) |
| --- | --- | --- |
| CGAUAGCAAUAUUACGGCUG | -0.568 ± 0.1 | 0.209 ± 0.15 |
| CGAUAGCAAUAUUACGGCUU | -2.67 ± 0.17 | -1.51 ± 0.19 |
| CGAUAGCAAUAUUACGUCAC | -3.44 ± 0.26 | -2.34 ± 0.25 |
| CGAUAGCAAUAUUACGUCGU | -4.24 ± 0.2 | -3.05 ± 0.21 |
| CGAUAGCAAUAUUACGUCUU | -1.49 ± 0.13 | -0.12 ± 0.13 |
| CGAUAGCAAUAUUACGUUCU | -1.15 ± 0.07 | -0.384 ± 0.094 |
| CGAUAGCAAUAUUACGUUUU | -3.78 ± 0.19 | -2.76 ± 0.16 |
| CGCAAGCAAUAUUACGAAUC | -4.8 ± 0.38 | -1.29 ± 0.18 |
| CGCAAGCAAUAUUACGAGCG | -3 ± 0.38 | -2.52 ± 0.44 |
| CGCAAGCAAUAUUACGAGGG | -3.85 ± 0.23 | -2.9 ± 0.32 |
| CGCAAGCAAUAUUACGAUUU | -2.45 ± 0.16 | -2.33 ± 0.18 |
| CGCAAGCAAUAUUACGCCGU | -2.67 ± 0.25 | -0.883 ± 0.14 |
| CGCAAGCAAUAUUACGCCUA | -0.46 ± 0.094 | -0.653 ± 0.1 |
| CGCAAGCAAUAUUACGCUAG | -2.46 ± 0.16 | -2.89 ± 0.2 |
| CGCAAGCAAUAUUACGGAAA | -2.31 ± 0.33 | -2.5 ± 0.2 |
| CGCAAGCAAUAUUACGGAAG | -1.03 ± 0.097 | -1.44 ± 0.1 |
| CGCAAGCAAUAUUACGGCAC | -2.32 ± 0.21 | -1.29 ± 0.3 |
| CGCAAGCAAUAUUACGGCAU | -1.63 ± 0.071 | -0.555 ± 0.079 |
| CGCAAGCAAUAUUACGGCGU | -3.52 ± 0.15 | -2.2 ± 0.18 |
| CGCAAGCAAUAUUACGGCUG | -1.33 ± 0.065 | 0.0892 ± 0.085 |
| CGCAAGCAAUAUUACGGGAG | -2.73 ± 0.095 | -2.19 ± 0.12 |
| CGCAAGCAAUAUUACGGUCA | -0.699 ± 0.067 | 0.0685 ± 0.079 |
| CGCAAGCAAUAUUACGUACA | -2.03 ± 0.11 | -0.56 ± 0.085 |
| CGCAAGCAAUAUUACGUAGA | -2.6 ± 0.11 | -1.73 ± 0.13 |
